In article PMC10760953, “Somatic estrogen receptor α mutations that induce dimerization promote receptor activity and breast cancer proliferation” (The Journal of Clinical Investigation, 2024):
Changes are numbered by the printed parent chain. Numbers in names are those of the source. Each block holds one molecule with its values, some of them ahead of it.

How the values were obtained:
[1] = molecular target: S463P ERα ligand-binding domain (LBD); experiment: FRET or BRET; time-resolved FRET of dimer exchange: 2 nM ER-LBD labelled at C417 (biotin, streptavidin-terbium) mixed with 10 nM ER-LBD labelled at C530 (fluorescein); apo or exposed to 1 μM E2 for 30 minutes before mixing; signal followed with time
[2] = molecular target: the molecule itself; experiment: cell-based or functional assay
[3] = molecular target: T1, S463P ERα ligand-binding domain (LBD); experiment: tr-FRET dimer exchange; conditions: chain shown with the change
T1 chain: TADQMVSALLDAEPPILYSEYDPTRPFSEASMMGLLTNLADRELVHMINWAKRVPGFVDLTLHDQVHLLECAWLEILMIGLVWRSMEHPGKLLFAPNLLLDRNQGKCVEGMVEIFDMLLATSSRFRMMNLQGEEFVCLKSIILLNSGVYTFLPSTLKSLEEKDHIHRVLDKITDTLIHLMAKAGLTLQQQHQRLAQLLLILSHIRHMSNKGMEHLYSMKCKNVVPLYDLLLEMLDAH

fold slower dissociation of dimers into monomers against WT ER, absence of E2 [1]: 7.6 times
Molecule: S463P ERα ligand-binding domain (LBD) (domain or fragment)

other: t1/2 of dimer exchange ([3]; apo (no E2), parent: 7): 0.883 h | other: t1/2 of dimer exchange ([3]; protein exposed to 1 μM E2 for 30 minutes before dimer exchange, parent: 101): 3.17 h
B3: WT ERα ligand-binding domain (LBD) S463P (protein)
chain: T1 chain

More lines, now with the values behind:

B1: HA-tagged ERα S463P (receptor, UniProt P03372 1-595, looked up)
chain: MTMTLHTKASGMALLHQIQGNELEPLNRPQLKIPLERPLGEVYLDSSKPAVYNYPEGAAYEFNAAAAANAQVYGQTGLPYGPGSEAAAFGSNGLGGFPPLNSVSPSPLMLLHPPPQLSPFLQPHGQQVPYYLENEPSGYTVREAGPPAFYRPNSDNRRQGGRERLASTNDKGSMAMESAKETRYCAVCNDYASGYHYGVWSCEGCKAFFKRSIQGHNDYMCPATNQCTIDKNRRKSCQACRLRKCYEVGMMKGGIRKDRRGGRMLKHKRQRDDGEGRGEVGSAGDMRAANLWPSPLMIKRSKKNSLALSLTADQMVSALLDAEPPILYSEYDPTRPFSEASMMGLLTNLADRELVHMINWAKRVPGFVDLTLHDQVHLLECAWLEILMIGLVWRSMEHPGKLLFAPNLLLDRNQGKCVEGMVEIFDMLLATSSRFRMMNLQGEEFVCLKSIILLNSGVYTFLPSTLKSLEEKDHIHRVLDKITDTLIHLMAKAGLTLQQQHQRLAQLLLILSHIRHMSNKGMEHLYSMKCKNVVPLYDLLLEMLDAHRLHAPTSRGGASVEETDQSHLATAGSTSSHSLQKYYITGEAEGFPATV
estrogen-independent expression of GREB1 (RT-qPCR, fold change relative to WT), SKBR3 cells [2]: 2.9 fold | estrogen-independent expression of PGR (RT-qPCR, fold change relative to WT), SKBR3 cells [2]: 7.1 fold

B2: HA-ERα A430K/S463P double mutant (receptor, UniProt P03372 1-595, looked up)
chain: B1 chain with A430K
estrogen-independent expression of GREB1 (RT-qPCR, fold change relative to WT), SKBR3 cells [2]: 0.4 fold | estrogen-independent expression of PGR (RT-qPCR, fold change relative to WT), SKBR3 cells [2]: 0.2 fold
